B1: ab23 (scFv, V domains shown)
VH: EVQLVQSGAEVKKPGSSVKVSCRSSGGTFSTYGITWVRQAPGQGLEWMGRIIPSLGIPNYAQKFQGRVTITADTSVSTAWMELSSLESDDTAIYYCARENIDLATNDFWGQGTLVTVSS
VL: QSALTQPPSASGSPGQSVTISCTGTSRDIGAYGYVSWYQQVPGKAPKLIIYEVRNRPSGVSSRFSGSKSGNTASLTISGLQAEDEADYYCSSYTSSSTLDVVFGGGTKLTVL
B2: ab19 (scFv, V domains shown)
VH: EVQLVESGAEVKKPGESLKISCKGSGYSFTSYWIGWVRQMPGKGLEWMGIIYPGDSDTRYSPSFQGQVTISADKSISTAYLQWSSLKASDTAMYYCARRGDLDAFDIWGQGTMVTVSS
VL: QPGLTQPPAASGTPGQRVTVSCSGASANIGSNAVSWFKQFPETAPRLLISGNTHRPSGVPDRVSGSKSGTSASLTISGLQSDDEADYYCAAWDDSLNGYVFGSGTKVTVL
B3: ab31 (scFv, V domains shown)
VH: EVQLVESGAEVKKPGESLKISCKGSGYTFTRYWIGWVRQMPGKGLEWMGIIYPGDLDTRYSPSFQGHVTISADKSISTAYLQWNSLKASDTAMYYCARLPQYCYKGVCKRWFDPWGQGTLVTVSS
VL: EIVLTQSPSSVSASVGDRVTITCRASQGIRSWLAWYQQKPGKAPKLLIYAASSLQSGVPSRFSGSGSGTDFTLTISSLQPEDFATYYCQQGHSVPYTFGQGTNLEIK
B4: ab49 (scFv, V domains shown)
VH: B3 VH with L56S, Y104E, K105N, V107I
VL: B3 VL with H92D, S93Q, V94Y, Y96L
B5: ab35 (scFv, V domains shown)
VH: B3 VH with L56A, Y104S, K105R, K109Q
VL: B3 VL with R30S, H92N, S93Q, V94F
B6: ab40 (scFv, V domains shown)
VH: B3 VH with L56S, D57E, Y104R, K105S, K109Q
VL: B3 VL with R30S, H92N, S93Q
B7: ab47 (scFv, V domains shown)
VH: B3 VH with L56S, Y104Q, K105N, K109H
VL: B3 VL with S31N, H92D, S93Q, V94D, Y96L
B8: ab44 (scFv, V domains shown)
VH: B3 VH with T58V, Y104R, K105E, V107K, K109H
VL: B3 VL with S31N, H92D, S93Q, V94D, Y96L
B9: ab34 (scFv, V domains shown)
VH: B3 VH with L56A, T58V, Y104R
VL: B3 VL with V94T
B10: ab42 (scFv, V domains shown)
VH: B3 VH with L56S, Y104Q, K105S
VL: B3 VL with H92D, S93Q, V94Y, Y96L
B11: ab46 (scFv, V domains shown)
VH: B3 VH with L56S, Y104S, K105S, K109H
VL: B3 VL with R30S, V94F
B12: ab33 (scFv, V domains shown)
VH: B3 VH with L56S, Y104R, K105A, V107K
VL: B3 VL with R30S, H92N, S93Q, V94Y
B13: ab32 (scFv, V domains shown)
VH: B3 VH with L56S, D57E, Y104R, K105R
VL: B3 VL with R30S, H92N, S93Q, V94L
B14: ab48 (scFv, V domains shown)
VH: B3 VH with L56N, T58V, Y104D, V107I
VL: B3 VL with R30S, H92D, S93Q, V94L
B15: ab43 (scFv, V domains shown)
VH: B3 VH with L56S, Y104S, K105A, K109F
VL: B3 VL with R30S, V94F
B16: ab50 (scFv, V domains shown)
VH: B3 VH with L56A, T58V, Y104S, K105S, V107S, K109F
VL: B3 VL with R30S, H92Y, V94T
B17: ab45 (scFv, V domains shown)
VH: B3 VH with L56S, Y104S, K105S, K109Q
VL: B3 VL with R30S, H92N, S93Q, V94F
B18: ab41 (scFv, V domains shown)
VH: B3 VH with L56N, T58V, Y104S, K105A, K109F
VL: B3 VL with R30S, S31N, H92Y, V94Y
B19: ab14 (scFv, V domains shown)
VH: QVQLQQSGPGLVKPSQTLSLTCAISGDSVSSNSAAWNWIRQSPARGLEWLGRTYYRSRWYNDYAISMKSRITINPDTSKNQFSLQLESVTPEDTAVYYCAREIRGFDYWGQGTLVTVSS
VL: QSVLTQPPSASGSPGQSVTISCTGTSSDVGAYNFVSWYQHHPGKAPKLIIYDFNKRPSGVPDRFSGSKSGNTASLTVSGLQADDEADYYCSSYAGSNNFDVVFGGGTKLTVL
B20: Anti-spike RBD Ab37 scFv (scFv)
scFv: ELMLTQPPSVSVAPGQTARITCGGNNIGSKSVHWYQQKPGQAPVLVVYDDSDRPSGIPERFSGSNSGNTATLTISRVEAGDEADYYCQVWDNTLLFGGGTELTVLGGGSSRSSGVQLVESGGGLVQPGGSLRLSCSASGFTFSSYAMHWVRQAPGKGLEYVSGISSNGGGTHYADSVKGRFSISRDNSKNTLYLQMSSLRAEDTAVYYCVKDDSGSYFSLFDHWGQGTLVTVSSASTKGPSV
B21: Anti-spike RBD Ab38 scFv (scFv)
scFv: ELQMTQSPSSLSASVGDRVTITCRASQSISSYLNWYQQKPGKAPKLLIYAASSLQSGVPSRFSGSGSGTDFTLTISSLQPEDFATYYCQQANSFPLTFGGGTKVEIKGGSSRSSQVQLVQSGAEVKKPGSSVKVSCKASGGTLSENGFSWVRQAPGQGLEWMGRIVPMFDISNYAERFQDRVTITADGSTNTAYMELRSLRLEDTAVYYCARDAVATSPGVYQHYGMDVWGQGTTVTVSSASTKGPSV
B22: Anti-spike RBD Ab36 scFv (scFv)
scFv: ELVMTQSPSSVSASVGDRVTITCRASQAIGSWLAWYQQKPGKAPKLLISSASSLQSGVPSRFSGSGSGTDFTLTISSLQPEDFATYYCQQLDSYPVTFGPGTKVDIKGGSSRSSEVQLLESGGGLIQPGGSLRLSCAASGLTVSSNYMSWVRQAPGKGLEWVSVIYSGGSTYYADSVKGRFTISRDNSKNTLYLQMNSLRAEDTAVYYCARAIDSGAFDIWGQGTMVTVSSGSASAPTL
B23: Anti-spike RBD Ab27 scFv (scFv)
scFv: ELQMTQSPSSLSASVGDRVTITCRASQSISSYLNWYQQKPGKAPKLLIYAASSLQSGVPSRFSGSGSGTDFTLTISSLQPEDFATYYCQQANSFPFTFGPGTKVDIKGGSSRSSQVQLVQSGAEVKKPGASVKVSCKASGYTFTSYGISWVRQAPGQGLEWMGWVNPNGGHTGYAQKFQGRVTMTRHTATNTVYMELSSLTSDDTAVYYCARGKGYYYGMDVWGQGTTVLVSSASTKGPSV
B24: Anti-spike RBD Ab39 scFv (scFv)
scFv: ELVLTQSPGTLSLSPGERATLSCRASQSLYNNFLAWYQQKPGQAPRLLIYAASNRATGIPDRFSGSGSGTDFTLTISRLEPEDFAVYYCQQYGSSPGYTFGQGTKLEIKGGSSRSSQVQLVQSGAEVKKPGSSVKVSCKASGGTFSSYAISWVRQAPGQGLEWMGGIIPIFGTANYAQKFQGRVTITADESTSTAYMELSSLRSEDTAVYYCARTLRQYYYYGMDVWGQGTTVTVSSGSASAPTL

Where a chain is given by its changes, count along the chain named.

The target of the first assay is purified 6× His-tagged SARS-CoV-2 spike protein (ELISA coat, Example 12) (SARS-CoV-2, UniProt P0DTC2 14-1213).
Consider B1, for which the EC50 – broadly, the concentration needed to bring the measured effect to its halfway point – amounted to 116 nM. In other words, the sub-micromolar range.

Take B2: the midpoint of the response, the EC50, lay at 24.2 nM.

B3: the EC50 amounted to 40.4 nM.

B4: the EC50 came to 234 nM.

On to B5, for which the EC50 turned out to be 39 nM.

For the molecule B6, the response was half-maximal at 40 nM (EC50). The EC50 values of the last two molecules are within 1.5-fold of each other.

Molecule B7 yielded an EC50 of 81.7 nM.

As to B8, the concentration for a half-maximal effect (EC50) stood at 28.2 nM.

Turning to B9, the EC50 was determined as 22.7 nM.

B10 registered an EC50 of 721 nM.

For B11, the midpoint of the response, the EC50, lay at 106 nM.

The molecule B12 showed a half-maximal effective concentration (EC50) of 33.4 nM.

In turn, B13 yielded an EC50 of 13.1 nM. Compared with the last molecule, the EC50 is about 2.5-fold lower.

For the molecule B14, a half-maximal response (EC50) required 1560 nM.

The molecule B15 yielded an EC50 of 216 nM. Against the preceding molecule, the EC50 is about 7.2-fold lower.

Consider B16, for which the EC50 stood at 165 nM.

For the molecule B17, the response was half-maximal at 37.3 nM (EC50).

For the molecule B18, the EC50 was 34.1 nM.

In turn, B19 returned an EC50 of 154 nM.

In another assay the target is T1, purified 6× His-tagged SARS-CoV-2 spike protein (ELISA coat, Example 12) (SARS-CoV-2, UniProt P0DTC2 14-1213).
Regarding B20, the EC50 amounted to 5.18 nM. In other words, the single-digit nanomolar range.

With B21, the EC50 is 10.6 nM. Against the preceding molecule, the EC50 is about 2-fold higher.

For the molecule B22, the EC50 was 31.2 nM.

A further assay addresses T1, purified 6× His-tagged SARS-CoV-2 spike …. The source holds these as a separate data set.
B20 showed an EC50 of 5.28 nM. In other words, the single-digit nanomolar range.

B23 had an EC50 of 8.85 nM.

Molecule B24 yielded an EC50 of 4.93 nM.

These data come from patent US20230303654A1 (CITY OF HOPE, published 2023).
